# B1: P69059.3 (bispecific antibody)
# chain 1: SYELTQPPSVSVSPGQTARITCSGDALPKKYAYWYQQKSGQAPVLVIYEATKRPSGIPERFSGSSSGTMATLTLSGAQVEDEADYYCYSTDSTNYHWVFGGGTKLTVLGGGGGSGGGGSQVQLQESGPGLVKPSQTLSLTCTVSGGSINNNNYYWTWIRQHPGKGLEWIGYIYYSGSTFYNPSLKSRVTISVDTSKTQFSLKLSSVTAADTAVYYCAREDTMTGLDVWGQGTTVTVSSASTKGPSVFPLAPCSRSTSESTAALGCLVKDYFPEPVTVSWNSGALTSGVHTFPAVLQSSGLYSLSSVVTVPSSNFGTQTYTCNVDHKPSNTKVDKTVGGGGSAAAVPRDLEVVAATPTSLLISWDAPHHGVAYYRITYGETGGNSPVQEFTVPGSKSTATISGLKPGVDYTINVYAVLAYPRGYPLSKPISINYRTDYKDDDDKGSSHHHHHH
# chain 2: DIQMTQSPSSLSASVGDRVTITCRASQSINNYLNWYQQKPGKAPTLLIYAASSLQSGVPSRFSGSRSGTDFTLTISSLQPEDFAAYFCQQTYSNPTFGQGTKVEVKGGGGSGGGGSEVQLVESGGGLVKPGVSLRLSCAASGFTFSRYSMNWVRQAPGKGLEWVSSISSSGTYIKYADSVKGRFTISRDNAKNSLNLQMNSLRAEDTAVYYCARDRDRYPLDYWGQGTLVTVSSRTVAAPSVFIFPPSDEQLKSGTASVVCLLNNFYPREAKVQWKVDNALQSGNSQESVTEQDSKDSTYSLSSTLTLSKADYEKHKVYACEVTHQGLSSPVTKSFNRGEC
# B2: H71362.2 (bispecific antibody)
# chain 1: EVQLVESGGGLVKPGVSLRLSCAASGFTFSRYGMNWVRQAPGKGLEWVSSISSSGTYIKYADSVKGRFTISRDNAKNSLNLQMNSLRAEDTAVYYCARDRDRYPLDYWGQGTLVTVSSASTKGPQVQLQESGPGLVKPSETLSLTCTVSGGSIISHYWSWIRQPPGKGLEWIGYIYYSGSTNYNPSLKSRVTISVDTSKNQFSLKLTSVTAADTAVYYCARDGWSAFDYWGQGTLVTVSSASTKGPSVFPLAPCSRSTSESTAALGCLVKDYFPEPVTVSWNSGALTSGVHTFPAVLQSSGLYSLSSVVTVPSSNFGTQTYTCNVDHKPSNTKVDKTVGGGGSAAAVPRDLEVVAATPTSLLISWDAIGLYPYYYRITYGETGGNSPVQEFTVPGSKSTATISGLKPGVDYTITVYAVSGIFGWNNSKPISINYRTGSSDYKDDDDKGSSHHHHHH
# chain 2: SYELTQPPSVSVSPGQTARITCSGDALPKKYAYWYQQKSGQAPVLVIYEATKRPSGIPERFSGSSSGTMATLTLSGAQVEDEADYYCYSTDSTNYHWVFGGGTKLTVLGTVAAPDIQMTQSPSSLSASVGDRVTITCRASQGIRNALGWYQQKPGKAPKRLIYAASSLQSGVPSRFSGSGSGTEFTLTISSLQPEDFATYYCLQHNSYPRTFGQGTKVEIRRTVAAPSVFIFPPSDEQLKSGTASVVCLLNNFYPREAKVQWKVDNALQSGNSQESVTEQDSKDSTYSLSSTLTLSKADYEKHKVYACEVTHQGLSSPVTKSFNRGEC
# B3: P69058.3 (bispecific antibody)
# chain 1: QVQLQESGPGLVKPSQTLSLTCTVSGGSINNNNYYWTWIRQHPGKGLEWIGYIYYSGSTFYNPSLKSRVTISVDTSKTQFSLKLSSVTAADTAVYYCAREDTMTGLDVWGQGTLVTVSSGGGGSGGGGSSSYELTQPPSVSVSPGQTARITCSGDALPKKYAYWYQQKSGQAPVLVIYEATKRPSGIPERFSGSSSGTMATLTLSGAQVEDEADYYCYSTDSTNYHWVFGGGTKLTVLGASTKGPSVFPLAPCSRSTSESTAALGCLVKDYFPEPVTVSWNSGALTSGVHTFPAVLQSSGLYSLSSVVTVPSSNFGTQTYTCNVDHKPSNTKVDKTVGGGGSAAAVPRDLEVVAATPTSLLISWDAPHHGVAYYRITYGETGGNSPVQEFTVPGSKSTATISGLKPGVDYTINVYAVLAYPRGYPLSKPISINYRTDYKDDDDKGSSHHHHHH
# chain 2: EVQLVESGGGLVKPGVSLRLSCAASGFTFSRYGMNWVRQAPGKGLEWVSSISSSGTYIKYADSVKGRFTISRDNAKNSLNLQMNSLRAEDTAVYYCARDRDRYPLDYWGQGTLVTVSSGGGGSGGGGSDIQMTQSPSSLSASVGDRVTITCRASQSINNYLNWYQQKPGKAPTLLIYAASSLQSGVPSRFSGSRSGTDFTLTISSLQPEDFAAYFCQQTYSNPTFGQGTKVEVKRTVAAPSVFIFPPSDEQLKSGTASVVCLLNNFYPREAKVQWKVDNALQSGNSQESVTEQDSKDSTYSLSSTLTLSKADYEKHKVYACEVTHQGLSSPVTKSFNRGEC
# B4: P136795.3 (bispecific antibody)
# chain 1: EVQLVESGGGLVQPGGSLKLSCAASGFTFNSYAMNWVRQAPGKGLEWVARIRSKYNNYATYYADSVKGRFTISRDDSKNTAYLQMNNLKTEDTAVYYCVRHGNFGNSYVSWWAYWGQGTLVTVSSGGGGSGGGGSQSVLTQPPSVSEAPRQRVTISCSGSSSNIGNNAVNWYQQLPGKAPKLLIYYDDMLSSGVSDRFSGSKSGTSASLAISGLQSEDEADYYCAAWDDSLNGVVFGGGTKLTVLASTKGPSVFPLAPCSRSTSESTAALGCLVKDYFPEPVTVSWNSGALTSGVHTFPAVLQSSGLYSLSSVVTVPSSNFGTQTYTCNVDHKPSNTKVDKTVGGGGSAAAEPKSSDKTHTCPPCPAPEAAGGPSVFLFPPKPKDTLMISRTPEVTCVVVDVSHEDPEVKFNWYVDGVEVHNAKTKPREEQYNSTYRVVSVLTVLHQDWLNGKEYKCKVSNKALPAPIEKTISKAKGQPREPQVYTLPPSREEMTKNQVSLTCLVKGFYPSDIAVEWESNGQPENNYDTTPPVLDSDGSFFLYSDLTVDKSRWQQGNVFSCSVMHEALHNHYTQKSLSLSPGK
# chain 2: not shown
# How the values were obtained:
# [1] = molecular target: T1, human CD3 (CD3 epsilon chain) on human T cells (human, UniProt P07766 22-207); experiment: FACS on isolated human T cells, FITC anti-human light chain secondary antibody
# T1 construct: The assay used isolated human T cells, which carry CD3 as part of the TCR-CD3 complex; also called CD3ε
# Method: The heterodimeric bispecific antibodies described in Example 1 were produced in HEK 293 cells and were assayed by fluorescence activated cell sorting (FACS) for binding to T cells, which express CD3, and to a human ovarian cancer cell line, Ovcar-8, which expresses mesothelin. Briefly, the heterodimeric bispecific antibodies were incubated with about 50,000 Ovcar-8 cells or isolated human or cynomolgus monkey T cells at 4° C. for one hour. The cells were then washed and stained with a fluorescein isothiocyanate (FITC)-conjugated anti-human light chain secondary antibody and analyzed by flow cytometry. The relative binding was represented by the geometric mean of fluorescence intensity.
# [2] = molecular target: T2, folate receptor 1 (FOLR1) on tumor cell lines (Cal-51, T47D) (human, UniProt P15328 25-234); experiment: cell-based or functional assay
# [3] = molecular target: T2, folate receptor 1 (FOLR1) on tumor cell …; experiment: cell-based or functional assay; remark: listed apart in the source
# T1 sequence (P07766 22-207 limits assumed): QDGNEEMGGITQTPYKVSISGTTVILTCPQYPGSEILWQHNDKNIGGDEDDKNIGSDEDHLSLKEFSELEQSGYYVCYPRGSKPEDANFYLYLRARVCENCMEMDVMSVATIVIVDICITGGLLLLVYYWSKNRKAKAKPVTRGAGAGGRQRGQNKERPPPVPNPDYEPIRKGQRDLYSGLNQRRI
# T2 sequence (P15328 25-234, stated change not applied): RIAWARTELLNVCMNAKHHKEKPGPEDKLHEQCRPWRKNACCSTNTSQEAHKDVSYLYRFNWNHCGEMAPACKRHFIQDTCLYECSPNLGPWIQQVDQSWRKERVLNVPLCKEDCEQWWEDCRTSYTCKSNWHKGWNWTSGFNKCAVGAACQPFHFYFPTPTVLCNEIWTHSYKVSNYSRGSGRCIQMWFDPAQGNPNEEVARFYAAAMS
binder,measurement,setting,value
B1,FACS binding (geometric mean),[1],179
B2,FACS binding (geometric mean),[1],354
B3,FACS binding (geometric mean),[1],290
B4,"EC50 of specific lysis, Cal-51 cells (printed Cal-61) with human T cells",[2],1.21 pM
same,"EC50 of specific lysis, T47D cells with human T cells",[2],1.26 pM
same,"EC50 (pM) for cytokine release, IFN-γ, in presence of T47D cells",[3],27.1 pM
same,"EC50 (pM) for cytokine release, IL-2, in presence of T47D cells",[3],20.3 pM
same,"EC50 (pM) for cytokine release, IL-10, in presence of T47D cells",[3],28.3 pM
same,"EC50 (pM) for cytokine release, IL-13, in presence of T47D cells",[3],27.8 pM
same,"EC50 (pM) for cytokine release, TNF-α, in presence of T47D cells",[3],12.5 pM

# Reference: patent US20140308285A1 (Amgen, published 2014)
